{"source": "patent US20130065259A1", "test_system": "SNAPtide (FITC/DABCYL), List Biological Laboratories product #521"}
{"substance": "BoNT/A complex", "values": [{"measurement": "Km, non-bead based assay (free BoNT/A), SNAPtide conversion", "result": "typical Km=0.7 µM"}, {"measurement": "fold change of Km, immobilized against free enzyme", "result": "3.2-fold lower"}]}
